These results are taken from patent US20240368242A1.

For this assay, the target named is recombinant murine CD40 protein (murine) (UniProt P27512). The assay is described as follows: SPR, binding to mCD40.
Chain of recombinant murine CD40 protein (murine) (P27512 24-193 limits assumed): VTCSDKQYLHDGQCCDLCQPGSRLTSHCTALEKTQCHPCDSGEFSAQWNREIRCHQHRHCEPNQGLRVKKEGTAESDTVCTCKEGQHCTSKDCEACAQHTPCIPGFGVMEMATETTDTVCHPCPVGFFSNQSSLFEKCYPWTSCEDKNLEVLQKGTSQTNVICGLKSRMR

B1: mCD40L-Fc (Fc fusion, from a related filing)
chain: MQRGDEDPQIAAHVVSEANSNAASVLQWAKKGYYTMKSNLVMLENGKQLTVKREGLYYVYTQVTFCSNREPSSQRPFIVGLWLKPSSGSERILLKAANTHSSSQLCEQQSVHLGGVFELQAGASVFVNVTEASQVIHRVGFSSFGLLKL
modifications: left off: a dimerising Fc or GST
For B1, the dissociation constant (Kd) turned out to be 3.23 nM, the koff worked out at 9.81e-05 s⁻¹ and the kon was 30400 M⁻¹ s⁻¹.
